Tests used:
Grb2 SH2 = Grb2 SH2 (UniProt P62993); assay: SH2 binding enrichment of the phosphorylated peptide, bacterial display (enrichment ratio); higher = better substrate or ligand; peptides without Tyr show the background
SHP2-C SH2 = assay: as above
c-Src SH2 = assay: as above
FGFR1 = FGFR1 (UniProt P11362); assay: phosphorylation enrichment, bacterial display (enrichment ratio); higher = better substrate or ligand; peptides without Tyr show the background
c-Abl (mouse) = assay: as above
c-Src = assay: as above
MERTK = MERTK (UniProt Q12866); assay: as above
Jak2 = Jak2 (UniProt O60674); assay: as above
Jak2, sequence (O60674 whole entry, looked up): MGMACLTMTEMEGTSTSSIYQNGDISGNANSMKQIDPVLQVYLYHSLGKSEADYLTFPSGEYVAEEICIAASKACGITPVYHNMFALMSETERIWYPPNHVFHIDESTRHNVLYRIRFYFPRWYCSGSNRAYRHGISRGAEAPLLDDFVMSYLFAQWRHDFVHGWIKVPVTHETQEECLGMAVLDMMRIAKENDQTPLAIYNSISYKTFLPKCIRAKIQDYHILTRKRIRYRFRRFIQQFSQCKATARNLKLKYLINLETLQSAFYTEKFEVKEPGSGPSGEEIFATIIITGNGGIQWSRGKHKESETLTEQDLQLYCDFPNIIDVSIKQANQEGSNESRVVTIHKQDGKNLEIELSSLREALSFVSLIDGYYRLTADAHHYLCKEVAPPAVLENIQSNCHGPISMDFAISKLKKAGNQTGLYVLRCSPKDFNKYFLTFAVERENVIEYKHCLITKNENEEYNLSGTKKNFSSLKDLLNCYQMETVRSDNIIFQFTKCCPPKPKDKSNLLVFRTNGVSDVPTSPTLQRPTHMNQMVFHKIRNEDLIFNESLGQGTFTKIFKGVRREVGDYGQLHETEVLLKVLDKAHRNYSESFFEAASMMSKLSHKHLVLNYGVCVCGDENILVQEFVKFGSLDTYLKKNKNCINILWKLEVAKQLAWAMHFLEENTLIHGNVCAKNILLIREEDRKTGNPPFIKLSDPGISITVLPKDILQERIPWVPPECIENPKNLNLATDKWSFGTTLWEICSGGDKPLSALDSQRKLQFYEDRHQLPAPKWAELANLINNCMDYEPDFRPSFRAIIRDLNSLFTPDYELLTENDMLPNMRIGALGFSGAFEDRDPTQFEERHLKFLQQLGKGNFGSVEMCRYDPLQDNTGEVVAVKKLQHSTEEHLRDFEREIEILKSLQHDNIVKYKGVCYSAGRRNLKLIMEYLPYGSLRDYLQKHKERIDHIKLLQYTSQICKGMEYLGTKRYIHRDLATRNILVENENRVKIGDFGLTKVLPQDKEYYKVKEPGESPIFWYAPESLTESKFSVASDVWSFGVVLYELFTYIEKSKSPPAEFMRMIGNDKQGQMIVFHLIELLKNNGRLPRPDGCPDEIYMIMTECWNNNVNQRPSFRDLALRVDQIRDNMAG

Fyn = Fyn (UniProt P06241); assay: as above
Fyn, sequence (P06241 whole entry, looked up): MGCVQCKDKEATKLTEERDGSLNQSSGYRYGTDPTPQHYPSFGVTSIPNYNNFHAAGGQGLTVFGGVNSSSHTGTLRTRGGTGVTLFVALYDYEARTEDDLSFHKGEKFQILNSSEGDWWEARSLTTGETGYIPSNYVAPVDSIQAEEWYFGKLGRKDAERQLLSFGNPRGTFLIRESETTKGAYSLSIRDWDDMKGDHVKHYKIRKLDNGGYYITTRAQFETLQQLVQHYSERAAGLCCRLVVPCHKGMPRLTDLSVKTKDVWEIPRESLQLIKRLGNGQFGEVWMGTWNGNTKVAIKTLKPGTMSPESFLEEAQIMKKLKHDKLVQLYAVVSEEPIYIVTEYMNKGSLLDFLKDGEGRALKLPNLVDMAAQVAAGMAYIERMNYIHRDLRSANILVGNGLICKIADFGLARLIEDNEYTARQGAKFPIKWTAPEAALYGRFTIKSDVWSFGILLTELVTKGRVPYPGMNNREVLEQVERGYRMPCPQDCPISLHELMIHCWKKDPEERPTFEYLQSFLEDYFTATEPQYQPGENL

Fes = Fes (UniProt P07332); assay: as above
AncSZ = assay: as above
EPHB2 = EPHB2 (UniProt P29323); assay: as above
EPHB2, sequence (P29323 whole entry, looked up): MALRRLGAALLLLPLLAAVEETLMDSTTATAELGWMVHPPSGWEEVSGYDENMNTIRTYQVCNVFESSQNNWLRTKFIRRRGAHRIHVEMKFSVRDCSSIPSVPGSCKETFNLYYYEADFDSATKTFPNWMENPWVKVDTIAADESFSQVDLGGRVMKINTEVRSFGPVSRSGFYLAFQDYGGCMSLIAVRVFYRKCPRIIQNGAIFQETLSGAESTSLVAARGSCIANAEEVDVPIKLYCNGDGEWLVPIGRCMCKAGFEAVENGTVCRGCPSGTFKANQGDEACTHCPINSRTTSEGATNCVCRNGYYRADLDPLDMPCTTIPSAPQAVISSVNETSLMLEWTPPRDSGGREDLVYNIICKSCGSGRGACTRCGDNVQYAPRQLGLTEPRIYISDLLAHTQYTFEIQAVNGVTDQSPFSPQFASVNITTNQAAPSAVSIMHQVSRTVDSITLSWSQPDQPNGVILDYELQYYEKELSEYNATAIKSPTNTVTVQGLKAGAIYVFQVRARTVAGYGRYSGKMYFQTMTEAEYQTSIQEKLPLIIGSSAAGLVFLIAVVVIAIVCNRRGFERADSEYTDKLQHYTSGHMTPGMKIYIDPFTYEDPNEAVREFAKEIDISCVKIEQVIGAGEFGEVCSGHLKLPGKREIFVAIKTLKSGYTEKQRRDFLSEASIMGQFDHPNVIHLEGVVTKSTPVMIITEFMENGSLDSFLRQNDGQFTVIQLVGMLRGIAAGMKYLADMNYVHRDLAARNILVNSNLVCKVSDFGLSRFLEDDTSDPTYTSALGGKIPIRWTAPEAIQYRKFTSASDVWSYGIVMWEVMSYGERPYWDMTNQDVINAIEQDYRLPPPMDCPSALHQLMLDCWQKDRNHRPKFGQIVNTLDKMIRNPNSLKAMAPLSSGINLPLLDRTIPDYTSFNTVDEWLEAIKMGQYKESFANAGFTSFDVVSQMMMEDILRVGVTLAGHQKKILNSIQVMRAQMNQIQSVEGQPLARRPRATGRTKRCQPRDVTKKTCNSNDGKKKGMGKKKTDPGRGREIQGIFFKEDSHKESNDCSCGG

Hck = Hck (UniProt P08631); assay: as above
Hck, sequence (P08631 whole entry, looked up): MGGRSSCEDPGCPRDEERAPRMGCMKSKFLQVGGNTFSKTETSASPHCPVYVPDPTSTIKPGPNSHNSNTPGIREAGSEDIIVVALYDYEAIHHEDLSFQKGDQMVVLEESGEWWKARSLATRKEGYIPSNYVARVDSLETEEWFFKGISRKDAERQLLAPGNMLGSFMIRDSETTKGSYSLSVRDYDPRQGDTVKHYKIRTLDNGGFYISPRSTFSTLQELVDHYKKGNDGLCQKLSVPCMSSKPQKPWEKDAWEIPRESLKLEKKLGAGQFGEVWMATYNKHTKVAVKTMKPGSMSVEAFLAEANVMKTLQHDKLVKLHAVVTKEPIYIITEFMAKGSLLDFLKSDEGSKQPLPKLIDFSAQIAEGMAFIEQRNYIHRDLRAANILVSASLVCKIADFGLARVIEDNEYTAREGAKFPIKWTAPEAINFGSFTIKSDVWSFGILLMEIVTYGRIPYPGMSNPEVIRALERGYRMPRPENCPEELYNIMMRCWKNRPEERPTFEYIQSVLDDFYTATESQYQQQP

FGFR3 = FGFR3 (UniProt P22607); assay: as above
Fer (mouse) = assay: as above
EPHB1 = EPHB1 (UniProt P54762); assay: as above
EPHB1, sequence (P54762 whole entry, looked up, the tested form may be a part): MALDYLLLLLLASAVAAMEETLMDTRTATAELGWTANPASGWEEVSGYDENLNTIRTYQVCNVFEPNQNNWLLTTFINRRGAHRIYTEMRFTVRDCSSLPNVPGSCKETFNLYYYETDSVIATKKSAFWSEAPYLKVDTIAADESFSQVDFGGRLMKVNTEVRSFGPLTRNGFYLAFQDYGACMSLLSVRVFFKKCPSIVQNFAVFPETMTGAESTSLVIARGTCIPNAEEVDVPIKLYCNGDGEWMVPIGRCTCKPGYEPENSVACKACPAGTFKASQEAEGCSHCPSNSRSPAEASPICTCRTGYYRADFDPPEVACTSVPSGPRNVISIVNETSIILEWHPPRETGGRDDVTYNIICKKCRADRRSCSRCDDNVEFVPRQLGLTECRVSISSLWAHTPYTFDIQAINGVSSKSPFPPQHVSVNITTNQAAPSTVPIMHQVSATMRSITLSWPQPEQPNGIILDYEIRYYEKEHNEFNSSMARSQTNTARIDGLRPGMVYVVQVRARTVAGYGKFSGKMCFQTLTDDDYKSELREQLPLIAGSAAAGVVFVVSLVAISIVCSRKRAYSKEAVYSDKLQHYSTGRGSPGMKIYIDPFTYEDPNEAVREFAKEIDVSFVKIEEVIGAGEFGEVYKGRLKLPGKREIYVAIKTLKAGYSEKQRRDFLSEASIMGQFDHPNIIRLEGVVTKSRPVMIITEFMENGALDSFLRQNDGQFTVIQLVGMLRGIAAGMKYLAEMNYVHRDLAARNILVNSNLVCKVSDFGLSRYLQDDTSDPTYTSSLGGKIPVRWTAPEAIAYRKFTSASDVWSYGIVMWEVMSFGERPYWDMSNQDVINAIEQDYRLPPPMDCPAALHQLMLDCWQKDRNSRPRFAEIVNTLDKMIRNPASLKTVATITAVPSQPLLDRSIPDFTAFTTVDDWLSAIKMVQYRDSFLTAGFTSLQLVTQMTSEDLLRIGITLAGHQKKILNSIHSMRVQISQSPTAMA
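Wherever SH2 binding enrichment of the phosphorylated peptide, bacterial display is given: peptide library displayed on the E. coli surface as eCPX fusions, selected cells deep-sequenced, score is each peptide's frequency after selection divided by its frequency in the input.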
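Wherever phosphorylation enrichment, bacterial display is given: 11-residue human phosphosite peptides and single-mutation variants displayed on the E. coli surface, counted by deep sequencing, each peptide's frequency after selection divided by its frequency in the unselected input library; frequency after pTyr selection over input frequency; kinase dosed for 20-30% of maximal phosphorylation in three min.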

FGFR1, sequence (P11362 whole entry, looked up): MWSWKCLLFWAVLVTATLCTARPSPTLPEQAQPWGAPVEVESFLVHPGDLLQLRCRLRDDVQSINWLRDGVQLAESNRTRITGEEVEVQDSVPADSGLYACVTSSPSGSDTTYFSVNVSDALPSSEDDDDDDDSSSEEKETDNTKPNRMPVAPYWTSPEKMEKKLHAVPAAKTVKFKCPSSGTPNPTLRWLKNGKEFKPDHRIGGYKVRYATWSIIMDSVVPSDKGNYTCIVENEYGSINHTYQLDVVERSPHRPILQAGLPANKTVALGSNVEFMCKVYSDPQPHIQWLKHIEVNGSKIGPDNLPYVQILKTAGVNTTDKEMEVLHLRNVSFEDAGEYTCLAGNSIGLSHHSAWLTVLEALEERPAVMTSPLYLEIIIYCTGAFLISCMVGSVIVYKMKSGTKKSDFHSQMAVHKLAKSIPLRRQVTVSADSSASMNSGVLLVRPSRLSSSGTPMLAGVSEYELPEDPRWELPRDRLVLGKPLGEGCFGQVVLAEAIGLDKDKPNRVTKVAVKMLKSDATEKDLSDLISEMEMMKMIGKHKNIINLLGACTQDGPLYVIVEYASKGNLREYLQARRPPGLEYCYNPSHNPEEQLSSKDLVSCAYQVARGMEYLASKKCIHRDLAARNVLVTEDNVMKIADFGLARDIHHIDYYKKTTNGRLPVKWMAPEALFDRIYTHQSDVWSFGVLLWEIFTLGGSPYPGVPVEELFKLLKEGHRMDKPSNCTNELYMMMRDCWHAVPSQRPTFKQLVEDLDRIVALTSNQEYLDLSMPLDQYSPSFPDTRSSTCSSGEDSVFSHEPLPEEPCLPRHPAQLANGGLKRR

Row | SH2 binding enrichment (Grb2 SH2) | SH2 binding enrichment (SHP2-C SH2) | SH2 binding enrichment (c-Src SH2) | Sequence | phosphorylation enrichment (FGFR1) | phosphorylation enrichment (c-Abl (mouse)) | phosphorylation enrichment (c-Src) | phosphorylation enrichment (MERTK) | phosphorylation enrichment (Jak2) | phosphorylation enrichment (Fyn) | phosphorylation enrichment (Fes) | phosphorylation enrichment (AncSZ) | phosphorylation enrichment (EPHB2) | phosphorylation enrichment (Hck) | phosphorylation enrichment (FGFR3) | phosphorylation enrichment (Fer (mouse)) | phosphorylation enrichment (EPHB1)
1 | 0.864 | 0.767 | 0.545 | DPLASYLDKVR [KRT10_Y160_R156P] | 0.48 | 0.392 | 0.44 | 0.441 | 0.521 | 0.468 | 0.744 | 0.751 | 0.608 | 0.477 | 0.534 | 0.455 | 0.413
2 | 0.962 | 0.659 | 1.57 | PVPKTYDMLNA [PKP2_Y108_K112N] | 0.597 | 1.05 | 0.83 | 1.14 | 1.04 | 0.666 | 1.11 | 0.866 | 0.622 | 1.07 | 0.737 | 0.542 | 0.512
3 | 1.05 | 1.83 | 0.927 | IGNGYYFHVFS [MYBPC3_Y1136_R1138H] | 1.61 | 0.919 | 0.354 | 0.503 | 1.73 | 0.43 | 1.39 | 1.46 | 0.552 | 0.45 | 1.52 | 0.604 | 0.848
4 | 1.3 | 1.53 | 1.52 | VMAALYGRLYE [BTD_Y536_T532M] | 0.468 | 0.8 | 5.01 | 3 | 0.864 | 5.87 | 0.963 | 0.795 | 1.42 | 5.58 | 0.617 | 1.38 | 0.961
5 | 0.894 | 0.842 | 0.62 | QNVADYMRFLM [RPL5_Y207_YF] | 0.871 | 1.42 | 1.64 | 0.814 | 2.91 | 1.2 | 1.97 | 1.73 | 1.92 | 1.09 | 1.09 | 0.818 | 1.79
6 | 0.673 | 1.47 | 1.17 | PMQLPYDSTWE [PDGFRB_Y589] | 0.438 | 1.12 | 1.1 | 0.573 | 1.24 | 0.561 | 1.69 | 0.975 | 0.399 | 0.554 | 0.646 | 0.575 | 0.533
7 | 0.804 | 0.529 | 0.457 | PEEKVYLSRGD [CRACR2A_Y141_H136P] | 0.706 | 1.35 | 1.01 | 0.735 | 1.22 | 0.88 | 1.77 | 1.44 | 0.573 | 1.1 | 1.29 | 0.778 | 1.06
8 | 0.999 | 1.69 | 2.98 | RPGSGYTKIMR [PKLR_Y564_N566K] | 0.372 | 0.396 | 0.348 | 0.48 | 0.41 | 0.404 | 0.525 | 0.546 | 0.303 | 0.409 | 0.368 | 0.42 | 0.415
9 | 0.91 | 0.661 | 1.02 | SYTDPYAQPPL [KMT2D_Y2378] | 3.08 | 0.666 | 0.587 | 0.52 | 0.681 | 0.496 | 0.902 | 0.927 | 0.482 | 0.473 | 2.16 | 0.489 | 0.591
10 | 0.817 | 0.62 | 0.463 | IRTDAYVPAMT [RPE65_Y89_R91P] | 0.399 | 0.594 | 0.401 | 0.367 | 0.678 | 0.302 | 0.612 | 0.516 | 0.336 | 0.495 | 0.455 | 0.425 | 0.33
11 | 0.722 | 0.544 | 0.381 | SVNCTYSPALN [TP53_Y126_T123N] | 0.484 | 0.622 | 0.849 | 0.478 | 0.77 | 0.735 | 1.01 | 0.957 | 0.613 | 0.851 | 0.725 | 0.521 | 0.654
12 | 1 | 0.971 | 0.742 | TLSGIYQFNIA [FOXL2_Y81_I84N_YF] | 0.543 | 0.676 | 4.73 | 5.39 | 0.696 | 4.21 | 0.741 | 0.891 | 0.555 | 2.98 | 0.539 | 7.33 | 0.76
13 | 0.749 | 0.712 | 0.409 | DFGSGYPNDPK [RNASEH2A_Y210_YF] | 0.397 | 0.562 | 0.464 | 0.424 | 0.906 | 0.382 | 0.678 | 0.778 | 0.469 | 0.423 | 0.579 | 0.39 | 0.516
14 | 0.927 | 1.71 | 1.93 | VIGRMYDYHVL [RPF2_Y109] | 6.62 | 0.65 | 0.643 | 5.17 | 0.976 | 0.504 | 0.859 | 0.966 | 1.7 | 0.538 | 3.7 | 9.05 | 1.33

Continued, sequence first:

Row | Sequence | SH2 binding enrichment (Grb2 SH2) | SH2 binding enrichment (SHP2-C SH2) | SH2 binding enrichment (c-Src SH2) | phosphorylation enrichment (FGFR1) | phosphorylation enrichment (c-Abl (mouse)) | phosphorylation enrichment (c-Src) | phosphorylation enrichment (MERTK) | phosphorylation enrichment (Jak2) | phosphorylation enrichment (Fyn) | phosphorylation enrichment (Fes) | phosphorylation enrichment (AncSZ) | phosphorylation enrichment (EPHB2) | phosphorylation enrichment (Hck) | phosphorylation enrichment (FGFR3) | phosphorylation enrichment (Fer (mouse)) | phosphorylation enrichment (EPHB1)
15 | GRQWNYVASMS [KLHL4_Y552] | 1.04 | 0.966 | 0.767 | 0.434 | 0.719 | 0.371 | 0.395 | 0.618 | 0.419 | 0.754 | 0.799 | 0.549 | 0.4 | 0.539 | 0.355 | 0.508
16 | AGIENYKSRFG [NKD2_Y256_T257K] | 0.784 | 0.487 | 0.43 | 0.357 | 0.512 | 0.363 | 0.412 | 0.537 | 0.356 | 0.486 | 0.578 | 0.377 | 0.517 | 0.452 | 0.409 | 0.451
17 | PLKFLYPNIDK [STAT1_Y668_YF] | 0.714 | 0.647 | 0.72 | 1.54 | 1.38 | 0.939 | 0.846 | 1.65 | 1.16 | 2.18 | 1.26 | 1.3 | 1.09 | 0.822 | 1.13 | 0.945
18 | QTEAQYRFIFM [PTPN11_Y511_YF] | 0.627 | 0.777 | 0.355 | 0.893 | 1.82 | 0.702 | 0.58 | 1.78 | 0.612 | 1.92 | 1.18 | 0.467 | 0.688 | 1.02 | 0.785 | 0.774
19 | TEQDPYNNIDR [MMUT_Y364_V368D] | 0.798 | 0.731 | 2.23 | 0.728 | 0.658 | 0.486 | 0.475 | 0.791 | 0.505 | 1.06 | 1.08 | 0.565 | 0.501 | 0.641 | 0.486 | 0.638
20 | TENAGYFFRVS | 0.724 | 0.583 | 0.466 | 0.442 | 1.15 | 0.41 | 0.369 | 1.45 | 0.389 | 1.36 | 1.25 | 0.565 | 0.457 | 0.853 | 0.536 | 0.614
21 | PKEEPYKMQEK [SLC5A3_Y565_Q566K] | 0.766 | 0.624 | 0.541 | 0.565 | 0.969 | 0.607 | 0.467 | 0.892 | 0.386 | 1.21 | 0.885 | 0.403 | 0.415 | 0.587 | 0.612 | 0.544
22 | NYAKMYCNPDA [KNL1_Y489] | 0.795 | 0.531 | 2.11 | 0.561 | 0.989 | 0.626 | 0.498 | 1.17 | 0.463 | 1.1 | 1.12 | 0.608 | 0.518 | 0.667 | 0.59 | 0.673
23 | FATAGYGSLEA [EPHA10_Y959_A956T] | 0.901 | 0.933 | 0.564 | 0.52 | 0.569 | 0.637 | 0.425 | 0.691 | 0.441 | 0.94 | 0.833 | 0.45 | 0.437 | 0.663 | 0.37 | 0.368
24 | QDGFSYPSRQM [LDLR_Y847_YF] | 1.48 | 0.725 | 0.66 | 0.453 | 0.621 | 0.398 | 0.415 | 0.454 | 0.434 | 0.53 | 0.378 | 0.479 | 0.522 | 0.325 | 0.409 | 0.218
25 | GEFHVYRHLRR [PRKRIP1_Y82] | 0.601 | 0.358 | 0.501 | 0.57 | 0.601 | 0.518 | 0.494 | 0.896 | 0.484 | 0.863 | 1.3 | 0.465 | 0.57 | 0.581 | 0.4 | 0.43
26 | RLLRGHDQSAF [HLA-C_Y137_Y137H_YF] | 0.89 | 0.718 | 0.657 | 0.427 | 0.653 | 0.573 | 0.421 | 0.732 | 0.501 | 0.738 | 0.79 | 0.389 | 0.566 | 0.47 | 0.357 | 0.465
27 | VVKLAYNENDN [CAMKK2_Y183] | 0.904 | 0.622 | 0.408 | 0.518 | 0.592 | 0.404 | 0.374 | 0.624 | 0.478 | 0.897 | 0.856 | 0.55 | 0.527 | 0.672 | 0.484 | 0.449
28 | KTTSGYAGGLS [KRT8_Y419] | 1.32 | 0.617 | 0.431 | 0.398 | 0.456 | 0.369 | 0.3 | 0.373 | 0.33 | 0.496 | 0.404 | 0.304 | 0.289 | 0.376 | 0.422 | 0.332
29 | FNSLLYQVPTS [CALCOCO2_Y358_P357L] | 0.818 | 0.91 | 0.538 | 1.17 | 17.8 | 3.65 | 12.5 | 2.1 | 2.58 | 1.06 | 2.77 | 18.8 | 6.55 | 1.32 | 15 | 12
30 | HAVYVYDICHV [TWNK_Y508] | 0.87 | 0.898 | 0.867 | 1.59 | 1.18 | 5.04 | 5.12 | 1.01 | 7.09 | 1.31 | 1.68 | 6.29 | 4.08 | 1.41 | 6.45 | 5.08
31 | ILNANYMAKRL [GLDC_Y839] | 1.08 | 0.509 | 0.461 | 0.368 | 0.394 | 0.34 | 0.446 | 0.436 | 0.412 | 0.514 | 0.476 | 0.363 | 0.366 | 0.412 | 0.458 | 0.334
32 | TEFIQYMRRKN [MAX_Y73_YF] | 0.675 | 0.54 | 0.387 | 0.367 | 0.404 | 0.521 | 0.472 | 0.594 | 0.547 | 0.629 | 0.701 | 0.732 | 0.458 | 0.486 | 0.51 | 0.44
33 | YSIAQYCCRMG [LRRK2_Y2023_G2019S] | 1.14 | 1.18 | 2.36 | 0.987 | 5.03 | 0.79 | 8.37 | 0.574 | 0.895 | 0.708 | 1.24 | 12 | 0.911 | 0.64 | 1.23 | 1.98

— the supplement of paper PMC10065799, “High-throughput profiling of sequence recognition by tyrosine kinases and SH2 domains using bacterial peptide display” (eLife, 2023)
